Results reported in patent US10487307B2, “Culture method for pluripotent stem cells” (FUJIFILM CORPORATION, priority 2013, dated 2019).

B1: RCP-23: comparative polypeptide, SEQ ID NO: 28; vitronectin positions 1-55, 56-129 (protein)
chain: GPLGDQESCKGRCTEGFNVDKKCQCDELCSYYQSCCTDYTAECKPQVTRGDVFTMPEDEYTVYDDGEEKNNATVHEQVGGPSLTSDLQAQSKGNPEQTPVLKPEEEAPAPEVGASKPEGIDSRPETLHPGRPQP
modifications: Vitronectin-derived Recombinant Protein (RCP-23)
B2: RCP-26: comparative polypeptide, SEQ ID NO: 31; vitronectin positions 269-459 (protein)
chain: GPLGPSQEECEGSSLSAVFEHFAMMQRDSWEDIFELLFWGRTSAGTRQPQFISRDWHGVPGQVDAAMAGRIYISGMAPRPSLAKKQRFRHRNRKGYRSQRGHSRGRNQNSRRPSRATWLSLFSSEESNLGANNYDDYRMDWLVPATCEPIQSVFFFSGDKYYRVNLRTRRVDTVDPPYPRSIAQYWLGCPAPGHL
modifications: Vitronectin-derived Recombinant Protein (RCP-26)
B3: RCP-25: comparative polypeptide, SEQ ID NO: 30; vitronectin positions 56-459 (protein)
chain: GPLGYTVYDDGEEKNNATVHEQVGGPSLTSDLQAQSKGNPEQTPVLKPEEEAPAPEVGASKPEGIDSRPETLHPGRPQPPAEEELCSGKPFDAFTDLKNGSLFAFRGQYCYELDEKAVRPGYPKLIRDVWGIEGPIDAAFTRINCQGKTYLFKGSQYWRFEDGVLDPDYPRNISDGFDGIPDNVDAALALPAHSYSGRERVYFFKGKQYWEYQFQHQPSQEECEGSSLSAVFEHFAMMQRDSWEDIFELLFWGRTSAGTRQPQFISRDWHGVPGQVDAAMAGRIYISGMAPRPSLAKKQRFRHRNRKGYRSQRGHSRGRNQNSRRPSRATWLSLFSSEESNLGANNYDDYRMDWLVPATCEPIQSVFFFSGDKYYRVNLRTRRVDTVDPPYPRSIAQYWLGCPAPGHL
modifications: Vitronectin-derived Recombinant Protein (RCP-25)
B4: Natural vitronectin: human vitronectin (extracted from human serum, BD Biosciences) (protein, listed as Homo sapiens)
chain: DQESCKGRCTEGFNVDKKCQCDELCSYYQSCCTDYTAECKPQVTRGDVFTMPEDEYTVYDDGEEKNNATVHEQVGGPSLTSDLQAQSKGNPEQTPVLKPEEEAPAPEVGASKPEGIDSRPETLHPGRPQPPAEEELCSGKPFDAFTDLKNGSLFAFRGQYCYELDEKAVRPGYPKLIRDVWGIEGPIDAAFTRINCQGKTYLFKGSQYWRFEDGVLDPDYPRNISDGFDGIPDNVDAALALPAHSYSGRERVYFFKGKQYWEYQFQHQPSQEECEGSSLSAVFEHFAMMQRDSWEDIFELLFWGRTSAGTRQPQFISRDWHGVPGQVDAAMAGRIYISGMAPRPSLAKKQRFRHRNRKGYRSQRGHSRGRNQNSRRPSRATWLSLFSSEESNLGANNYDDYRMDWLVPATCEPIQSVFFFSGDKYYRVNLRTRRVDTVDPPYPRSIAQYWLGCPAPGHL
modifications: glycosylated

How the values were obtained:
[1] = Evaluation of adsorbability with respect to cell culture surface (OPA fluorescence); assay type: physicochemical; conditions: FIG. 1; for adsorbability with respect to the plate: 0 to 200 pmol/cm^2 added, 2 hours at 37° C., washed twice with PBS
Procedure: Each of the polypeptides of RCP-1 to RCP-11 and RCP-21 to RCP-26 obtained as above was diluted with a predetermined buffer such that they could be added to wells at a predetermined final concentration of 0 pmol/cm^2 to 200 pmol/cm^2. Thereafter, each of the polypeptides was added in an amount of 64 μL to a plasma-treated 96-well plate made of polystyrene (Tissue Culture-Treated, Falcon). Each of the polypeptides was allowed to adsorb onto the plate by being incubated for 2 hours at 37° C., and then the wells were washed twice with PBS, thereby obtaining surfaces coated with each of the polypeptides of RCP-1 to RCP-11 and RCP-21 to RCP-26.
Among the surfaces coated with each of the polypeptides obtained as above, the surfaces coated with RCP-1 and RCP-21 to RCP-26 were applied with 64 μL of a borate buffer and 64 μL of 1 N NaOH, followed by incubation for 24 hours at 80° C. and 100% humidity. After the resultant was air-cooled, 75 μL of a borate buffer was added to each well, and 50 μL of a reaction solution obtained by mixing OPA (o-phthalaldehyde: Wako Pure Chemical Industries, Ltd./methanol solution (160 mg/ml)) with N-acetyl-L-cysteine (NAC: Wako Pure Chemical Industries, Ltd.)/borate buffer solution (2 mg/ml) at a ratio of 1:100 (mass ratio) was further added thereto. After incubation for 30 minutes at 40° C., the fluorescence intensity thereof was measured by using an Envision Multilabel Counter (PerkinElmer Inc.) (excitation 355 nm/fluorescence 486 nm). A calibration curve was separately prepared from each of the polypeptide solutions so as to calculate the amount of the polypeptide adsorbed. In FIG. 1, a black rhombus indicates RCP-1, a black square indicates RCP-21, a black triangle indicates RCP-22, a black circle indicates RCP-23, a white rhombus indicates RCP-24, a white square indicates RCP-25, and a white triangle indicates RCP-26.

human iPS cells ("Tic") = assay: Cell adhesiveness evaluation 1 (ALP activity of adhesive iPS cells); assay type: cell-based; conditions: 30,000 cells/well, 24 hours, n=3
Procedure: The cell adhesiveness of human iPS cells (“Tic”: Cell No. JCRB 1331: from National Institute of Biomedical Innovation. [567-0085, 7-6-8 Asagi Saito Ibaraki-City Osaka]) with respect to the aforementioned polypeptides was evaluated in the following manner.
As feeder cells for retaining the human iPS cells, EmbryoMax (registered trademark) (early mouse embryonic fibroblasts: resistant to hygromycin, treated with mitomycin C, derived from C57/BL6, third passage) (Millipore Corporation) was used. By using DMEM (Invitrogen) and a 10% (v/v) fetal bovine serum medium, the feeder cells were cultured for 24 hours and attached to a T25 flask (Corning Incorporated). As a medium for the human iPS cells, the one obtained by adding FGF-2 (Sigma-Aldrich Co, LLC.) to a medium composed as shown in Table 6 at a final concentration of 10 ng/ml was used.
By using the aforementioned medium, the human iPS cells were retained and cultured in a 5% (v/v, the same unit will be used hereinafter) CO2 incubator at 37° C. Except for the day after the seeding of the iPS cells, the medium was replaced every day. The subculture operation was performed by exfoliating the cells by using Dispase II (neutral protease Grade II, Roche) and separating the cells in an appropriate size by a pipetting operation.
The iPS cells cultured as described above were treated with TrypLE Select (Invitrogen) for 5 minutes at 37° C. and separated into a single cell. After being subjected to centrifugation for 2 minutes at 300 rpm, the cells were collected and suspended in TeSR2 (a medium not containing a heterogeneous animal-derived component and a serum component, STEMCELL Technologies.) containing Y-27362 ((R)-(+)-trans-N-(4-pyridyl)-4-(1-aminoethyl)-cyclohexane carboxamide.2HCl.H2O, an Rho binding kinase inhibitor, Wako Pure Chemical Industries, Ltd.) at a final concentration of 10 μM.
Each of RCP-1 to RCP-11, RCP-21, RCP-25, and RCP-26 as control, human vitronectin (extracted from human serum, BD Biosciences), and recombinant laminin (rLaminin-5: Oriental Yeast Co., ltd. and Human Recombinant Laminin-511: BIOLAMINA AB) was added to and suspended in a predetermined buffer (a dialysis buffer used in <GRAVY value and aggregation characteristics> described above for RCP-1 to RCP-11, and PBS for RCP-21, RCP-25, human vitronectin, and recombinant laminin) at the concentration shown in Table 7, thereby preparing samples 1 to 17. The samples were added to the respective wells of a 96-well plate and adsorbed onto the plate by being held for 2 hours at 37° C.
Into the respective wells of the 96-well plate treated with the peptides, iPS cells were seeded at a cell density of 30,000 cells/well. After the cells were cultured for 24 hours, the nonadhesive cells were washed off with PBS, and only the adhesive cells were immobilized by using 4% (v/v) paraformaldehyde (Wako Pure Chemical Industries, Ltd.). By using an Attophos (registered trademark) AP Fluorescent Substrate System (Promega Corporation), the ALP activity was calculated, and from the calibration curve, the number of undifferentiated iPS cells having the ALP activity was calculated. In Table 7, the cell adhesion rate is expressed as a ratio calculated by regarding the cell adhesion rate obtained from the sample 15 using natural vitronectin as being 100%. n=3.

iPS cells [2] = assay: Evaluation of maintenance of undifferentiated state (reference examples); assay type: cell-based, human
Procedure: iPS cells collected in the same manner as in <Cell adhesiveness evaluation 1> were suspended in TeSR2. The iPS cells were seeded into 6-well plate (Tissue culture-treated, Falcon), onto which each of the samples 1, 2, 5, 6, and 7 used in <Cell adhesiveness evaluation 1> was adsorbed in the same manner as in <Cell adhesiveness evaluation 1>, and cultured in a CO2 incubator at 37° C. Except for the day after the seeding, the medium was replaced every day. In the same method as described above, the cells were subcultured every six days.
After being cultured for 1 month under the conditions described above, the cells were immobilized using 4% paraformaldehyde and treated with 1% Triton-X/PBS so as to enhance the membrane permeability. After the cells were subjected to a blocking treatment using an Image IT Signal Enhancer (Invitrogen), an anti-human NANOG antibody (AF 1997, R&D Systems, Inc.), an Alexa Fluor 555 binding rabbit anti-goat IgG antibody (Invitrogen), and DAPI (4′,6-diamidino-2-phenylindole, Dojindo Molecular Technologies, Inc.) were added thereto for labeling, and the cells were imaged using a fluorescence microscope.
FIGS. 3A and 4A show the iPS cells cultured on RCP-1; FIGS. 3B and 4B show the iPS cells cultured on RCP-11; FIGS. 3C and 4C show the iPS cells cultured on natural human vitronectin; FIGS. 3D and 4D show the iPS cells cultured on rLaminin-5; and FIGS. 3E and 4E show the iPS cells cultured on rLaminin-511. The scale bar in the images indicates […]. In FIGS. 3A to 3E, the images on the left side are full images of the colony, and the images on the right side are magnified images. In FIGS. 4A to 4E, the images on the left side are images of the cells stained with DAPI, and the images on the right side are images of the cells stained with an anti-NANOG antibody. The scale bar in FIGS. 3A to 4E indicates 200 μm.

iPS cells [3] = assay: Cell adhesiveness evaluation 3 (RCP-1 added amount); assay type: cell-based, human; conditions: added amount 130 pmol/cm^2; this surface = 100%; n=3
Procedure: The cell adhesiveness was evaluated in the same manner as in <Cell adhesiveness evaluation 1>, except that RCP-1 was used after the concentration thereof was adjusted to 125 pmol/cm^2 to 1,000 pmol/cm^2 by using PBS. In Table 10, the cell adhesion rate is expressed as a ratio calculated by regarding a cell adhesion rate with respect to the cell culture surface, onto which natural vitronectin is adsorbed at a concentration of 130 pmol/cm^2, as being 100%. n=3.

[4] = added amount 200 pmol/cm^2, natural vitronectin (sample 15) = 100%

Molecule | amount adsorbed onto the plate as fraction of the amount of polypeptides containing SEQ ID NO: 2 [1] | Cell adhesion rate (%) (human iPS cells ("Tic"); [4]) | adsorbability with respect to the plate [1] | other results
RCP-24: comparative polypeptide, SEQ ID NO: 29; vitronectin positions 1-55 (GPLGDQESCKGRCTEGFNVDKKCQCDELCSYYQSCCTDYTAECKPQVTRGDVFTMPEDE; Vitronectin-derived Recombinant Protein (RCP-24)) [reference compound] | about ¼ | – | – | –
B1 | about ¼ | – | – | –
B2 | – | 9.4 ± 2.9% | excellent adsorbability | –
B3 | – | 13.2 ± 3.4% | excellent adsorbability | –
B4 | – | – | – | form of iPS cell colony (iPS cells [2]; TeSR2, subcultured every six days, FIGS. 3A to 3E): form specific to undifferentiated cells; NANOG expression (iPS cells [2]; cultured for 1 month in TeSR2, anti-NANOG staining, FIGS. 4A to 4E): strongly expressed NANOG in the entirety of the colony; Cell adhesion rate (%) (human iPS cells ("Tic"); added amount 130 pmol/cm^2, this sample = 100%): 100 ± 5.5%; Cell adhesion rate (%) (iPS cells [3]): 100 ± 5.5%
